Laboratory results: article PMC4725879

Tests used:
[1] = tested on: LacI-Gly60+3 (Escherichia coli); test: EMSA; details: 5 mM Mg2+; EMSA: 20 mM Tris-HCl pH 8.0, 200 mM NaCl, 0.5 mM EDTA, 1 mM DTT, 5 mM MgCl2, 5% glycerol, 0.1 nM DNA, 22 C, 60 min; nicking assays at 37 C
[2] = tested on: LacI (lac repressor), wild type (Escherichia coli); test: EMSA; details: no IPTG; 5 mM Mg2+; EMSA: 20 mM Tris-HCl pH 8.0, 200 mM NaCl, 0.5 mM EDTA, 1 mM DTT, 5 mM MgCl2, 5% glycerol, 0.1 nM DNA, 22 C, 60 min; nicking assays at 37 C

Substance | Ka [1] | Ka [2]
lac Os fragment | 2.4e+09 M⁻¹ | –
lac O1 fragment | 1e+09 M⁻¹ | 1.2e+10 M⁻¹
lac O2 fragment | 6.2e+08 M⁻¹ | –
